{
  "source": "paper PMC2737543",
  "about": "“The crystal structure of Haloferax volcanii proliferating cell nuclear antigen reveals unique surface charge characteristics due to halophilic adaptation” (BMC Structural Biology, 2009)",
  "proteins": {"B1": {"name": "Haloferax volcanii proliferating cell nuclear antigen (natural protein)", "chain": "MFKAIVSAATLRDALDSVSVLVDECKIRLNEESLSIRAVDPANVGMVDLTLDAAAFESYEAHGGVIGVNLSRLEEVAGMAGAGDLIHLTLDEETRKLNIRIDGLSYTLALIDPDSIRQEPDIPDLDLAANIVLEGTHLDRGIKAADMVSDHIRLRVDGAEETFHIEAEGDTDDVDLSLPPADLISIEAGAADSLFSLDYLKDMNKAIPTDAEVTVELGEEFPVKLHYQIAEGMGTITYMLAPRIQSD", "notes": "Homotrimer; No tag is mentioned; In the model the N-terminal methionine is missing and the C-terminus is not modelled from residue 244; also called HvPCNA; H. volcanii PCNA; source: E. coli B834 (DE3), purified (ammonium sulphate precipitation, Superdex 200, Q-sepharose FF)"}},
  "biological_target": "the molecule itself",
  "experiment": "SEC; 10/300 Superdex 200, 50 mM HEPES pH 7.0, KCl 0.2 to 3.0 M (and equivalent NaCl); protein incubated 4 hours in the buffer before loading; 0.5 ml/min; calibrated with molecular weight standards",
  "data": [
    {"protein": "B1", "values": [
      {"measurement": "stoichiometry N", "value": 3}
    ]}
  ]
}
